Experimental data reported in paper PMC4838857, “Tum/RacGAP functions as a switch activating the Pav/kinesin-6 motor” (Nature Communications, 2016).

Experiments:
[1] = molecular target: Pav/kinesin-6 (Pavarotti, Pav-KLP), full length with C-terminal 6xHis (Drosophila melanogaster); test: SEC + other: sucrose gradient sedimentation; hydrodynamic analysis (Siegel and Monty) of centralspindlin purified from co-expression: Superose 6 and 5-20% sucrose gradient, 4 °C
[2] = molecular target: Pav/kinesin-6 (Pavarotti, Pav-KLP), full length with C-terminal 6xHis (Drosophila melanogaster); test: SEC + other: sucrose gradient sedimentation; hydrodynamic analysis (Siegel and Monty) of the in vitro add-back: equal molar Pav/kinesin-6 and Tum/RacGAP, purified apart, mixed and incubated
[3] = molecular target: Pav/kinesin-6 (Pavarotti, Pav-KLP), full length with C-terminal 6xHis (Drosophila melanogaster); test: SEC + other: sucrose gradient sedimentation; hydrodynamic analysis (Siegel and Monty) of each protein alone: Stokes radius by Superose 6, S value on 5-20% sucrose gradient, 9 h at 55,000 r.p.m., 4 °C
[4] = molecular target: Pav/kinesin-6 (Pavarotti, Pav-KLP), full length with C-terminal 6xHis (Drosophila melanogaster)
[5] = molecular target: Tum/RacGAP (Tumbleweed, RacGAP50C), full length with C-terminal 6xHis (Drosophila melanogaster); test: SEC + other: sucrose gradient sedimentation; hydrodynamic analysis (Siegel and Monty) of the in vitro add-back: equal molar Pav/kinesin-6 and Tum/RacGAP, purified apart, mixed and incubated
[6] = molecular target: Tum/RacGAP (Tumbleweed, RacGAP50C), full length with C-terminal 6xHis (Drosophila melanogaster); test: SEC + other: sucrose gradient sedimentation; hydrodynamic analysis (Siegel and Monty) of each protein alone: Stokes radius by Superose 6, S value on 5-20% sucrose gradient, 9 h at 55,000 r.p.m., 4 °C
[7] = molecular target: Tum/RacGAP (Tumbleweed, RacGAP50C), full length, untagged, co-expressed with Pav/kinesin-6 (Drosophila melanogaster); test: SEC + other: sucrose gradient sedimentation; hydrodynamic analysis (Siegel and Monty) of centralspindlin purified from co-expression: Superose 6 and 5-20% sucrose gradient, 4 °C
[8] = substrate: Nc1ncnc2c1ncn2[C@@H]1O[C@H](COP(=O)(O)OP(=O)(O)OP(=O)(O)O)[C@@H](O)[C@H]1O; test: microtubule gliding velocity vs [MgATP], Lineweaver-Burk; type: biochemical, Drosophila melanogaster; conditions: motility-derived Km, saturating taxol-stabilised microtubules, Mg2+, pH 8.0, 150 mM KCl
Excerpt: microtubule gliding velocity vs [MgATP], Lineweaver-Burk on centralspindlin (co-expressed Pav/Tum)

Molecule: Pav/kinesin-6 (Pavarotti, Pav-KLP), full length with C-terminal 6xHis (natural protein)
- stoichiometry N [1]: 2 subunits
- stoichiometry N [2]: 2 subunits
- stoichiometry N [3]: 2 subunits

Molecule: Tum1-65 fragment (1-65aa of Tum/RacGAP) with C-terminal 6xHis (domain or fragment)
- MT gliding velocity of Pav+Tum1-65 (in vitro add-back); Pav/kinesin-6 alone 0 [4]: 0.075 μm s^-1

Molecule: Tum/RacGAP (Tumbleweed, RacGAP50C), full length with C-terminal 6xHis (natural protein)
- MT gliding velocity of Pav+Tum (in vitro add-back, equal molar); Pav/kinesin-6 alone 0 [4]: 0.062 μm s^-1
- stoichiometry N [5]: 2 subunits
- stoichiometry N [6]: 2 subunits

Molecule: Tum/RacGAP (Tumbleweed, RacGAP50C), full length, untagged, co-expressed with Pav/kinesin-6 (natural protein)
- MT gliding velocity of centralspindlin (co-expressed Pav/Tum); Pav/kinesin-6 alone 0 [4]: 0.103 μm s^-1
- stoichiometry N [7]: 2 subunits

B1: centralspindlin (co-expressed Pav/Tum) (Drosophila melanogaster) (protein)
chain: MKAVPRTPMRVVPKTPRVHQTVEKQRRDTSDKARDPVNVFCRVRPLQSDADLTSLRVKNSTTIALNPQDQLLQHHKPHNGAQREVQYIFKHVFQPDATQQDVYAAVAQPLVENLLKGRNSLLFTYGVTGSGKTYTMTGNLRHRGIMPRCLDVLFRTISDYQAKKFVFKPDKLNGFEILSEEDALLERQHEMNQRFAGSGRFAFRHKDSDPEIASQASVEPIPLLGLDEDNMYSVFVTYIEIYNNSVYDLLEDSGIQKTLQSKIIREDANRHMFVHGVTEVEVKTVEDALEVFQMGQKRKRMGHTVLNAESSRSHSVFNIRLVQAPTDSQGENVVQDRQNITVSQLSLVDLAGSERSSRTKNTGVRLREAGNINNSLMTLRTCLEYLRENQLAASNGLAPKKVPYRDSKITHMFKNYFDGEGQVSMIVCINPRIEDYDENMQVMKFAEMTQEVQIARATPMKQDLGLTPGRRKANKLFKIAVNNLNELGIPEAKDLEVDVGLVYSLGPDFPAYEMDSPEAQIKIRELMHYLEQRIEKRKKLRANLDIKCDSFRQMLMNLDRDNLQLRTELASLKAVYKQERDRSAALEKKVRIHESSIDVLNNTLSKQERQIEELTFKLNEKENMLTQKEHEKEKQKKKFSSKLAVESDKNKREFELKLREQRVKLQERMRIKDEKLRLVSNILQSEDLPSLPRSQSSENILNEKDRGAYTARTEESSVPATRTDIYATPRHGAAAANNRHRRSRSAGDKWLEHRAANPVPLGTIMQPYLKNRKSVTKLTDLKELTAHGTTKYCLVSQDADTDGDVETKLYKGNVIPTCGGGAQVVFNDVECLKQKSPVHSPTRKRPSNGNISALGGGAVPSTVTSAQDVASRCNLGIEGHSSKKSKI
notes: full-length Pav with C-terminal 6xHis co-expressed with untagged full-length Tum in Sf9 (baculovirus), Ni-NTA and Superose 6; heterotetramer 372 kDa (2 Pav 107 kDa + 2 Tum 65 kDa); cDNA errors in Tum corrected
- Km [8]: 79 ± 13 µM
